According to article PMC3504387 (Chemmedchem, 2012):
Where no end group is shown, it is not given here. The star is where a group is joined. Biotin = O=C1N[C@H]2[C@H](CS[C@H]2CCCCC(=O)*)N1; Ahx = NCCCCCC(=O)O

T1: PPARγ (Gal4-PPARγ LBD, transactivation) (Mus musculus, UniProt P37238)
T1 construct: gene Pparg
T1 sequence (P37238 204-505): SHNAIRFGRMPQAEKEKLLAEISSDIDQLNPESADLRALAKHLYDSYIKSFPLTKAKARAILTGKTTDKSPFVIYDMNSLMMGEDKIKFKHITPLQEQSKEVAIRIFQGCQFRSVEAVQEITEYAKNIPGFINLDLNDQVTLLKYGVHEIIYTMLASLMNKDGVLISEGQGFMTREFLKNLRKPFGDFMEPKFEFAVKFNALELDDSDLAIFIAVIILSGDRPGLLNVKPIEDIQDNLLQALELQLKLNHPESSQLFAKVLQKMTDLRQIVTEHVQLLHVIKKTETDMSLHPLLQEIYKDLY

T2: GST–PPARγ fusion protein (purified ligand binding domain of PPARγ)
T2 chain: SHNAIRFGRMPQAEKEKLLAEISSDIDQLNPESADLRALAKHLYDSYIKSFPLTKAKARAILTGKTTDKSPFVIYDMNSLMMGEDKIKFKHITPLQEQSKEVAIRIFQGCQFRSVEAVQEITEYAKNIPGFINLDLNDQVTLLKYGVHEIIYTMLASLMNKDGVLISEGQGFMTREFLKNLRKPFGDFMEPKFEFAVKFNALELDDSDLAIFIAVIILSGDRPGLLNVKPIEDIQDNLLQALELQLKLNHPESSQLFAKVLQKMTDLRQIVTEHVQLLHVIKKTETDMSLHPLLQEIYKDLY

T3: GST–PPARα fusion protein (purified ligand binding domain of PPARα)
T3 sequence (Q07869 whole entry, species assumed, looked up): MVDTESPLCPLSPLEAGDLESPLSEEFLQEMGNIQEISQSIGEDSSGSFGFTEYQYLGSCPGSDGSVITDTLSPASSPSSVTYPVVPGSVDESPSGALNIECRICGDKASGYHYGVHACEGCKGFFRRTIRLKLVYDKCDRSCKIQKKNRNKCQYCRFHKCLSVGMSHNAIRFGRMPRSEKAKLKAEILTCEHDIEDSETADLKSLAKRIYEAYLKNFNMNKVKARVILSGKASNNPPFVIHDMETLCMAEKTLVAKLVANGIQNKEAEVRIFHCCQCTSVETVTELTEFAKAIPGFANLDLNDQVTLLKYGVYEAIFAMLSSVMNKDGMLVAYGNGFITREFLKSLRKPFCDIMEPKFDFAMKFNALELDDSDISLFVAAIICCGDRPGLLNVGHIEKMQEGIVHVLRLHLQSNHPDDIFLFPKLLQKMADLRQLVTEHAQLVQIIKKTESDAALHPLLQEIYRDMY


Key:
[1] = molecular target: T1, PPARγ (Gal4-PPARγ LBD, transactivation); assay: Gal4-LBD luciferase transactivation, BHK21 cells; type: cell-based; settings: agonist; […] h, […] °C; unreliable
[2] = molecular target: T2, GST–PPARγ fusion protein (purified …); assay: FRET or BRET; homogeneous TR-FRET as a1, 12-concentration dose–response of farglitazar; the EC50 is of the compound; delta ratio in % of the reference compound edaglitazone at 10 μM; settings: both partners purified
[3] = molecular target: T2, GST–PPARγ fusion protein (purified …); assay: FRET or BRET; homogeneous TR-FRET as a1, 12-concentration dose–response of RO4899100; the EC50 is of the compound; delta ratio in % of the reference compound at 10 μM (RO4899100 for PPARα, edaglitazone for PPARγ); settings: both partners purified
[4] = molecular target: T2, GST–PPARγ fusion protein (purified …); assay: FRET or BRET; homogeneous TR-FRET as a1, 12-concentration dose–response of aleglitazar; the EC50 is of the compound; delta ratio in % of the reference compound at 10 μM (RO4899100 for PPARα, edaglitazone for PPARγ); settings: both partners purified
[5] = molecular target: T2, GST–PPARγ fusion protein (purified …); assay: FRET or BRET; homogeneous TR-FRET as a1, 12-concentration dose–response of edaglitazone; the EC50 is of the compound; delta ratio in % of the reference compound at 10 μM (RO4899100 for PPARα, edaglitazone for PPARγ); settings: both partners purified
[6] = molecular target: T2, GST–PPARγ fusion protein (purified …); assay: FRET or BRET; homogeneous TR-FRET as a1, 12-concentration dose–response of muraglitazar; the EC50 is of the compound; delta ratio in % of the reference compound at 10 μM (RO4899100 for PPARα, edaglitazone for PPARγ); settings: both partners purified
[7] = molecular target: T2, GST–PPARγ fusion protein (purified …); assay: FRET or BRET; homogeneous TR-FRET as a1, 12-concentration dose–response of pioglitazone; the EC50 is of the compound; delta ratio in % of the reference compound at 10 μM (RO4899100 for PPARα, edaglitazone for PPARγ); settings: both partners purified
[8] = molecular target: T2, GST–PPARγ fusion protein (purified …); assay: FRET or BRET; homogeneous TR-FRET as a1, 12-concentration dose–response of tesaglitazar; the EC50 is of the compound; delta ratio in % of the reference compound at 10 μM (RO4899100 for PPARα, edaglitazone for PPARγ); settings: both partners purified
[9] = molecular target: T2, GST–PPARγ fusion protein (purified …); assay: FRET or BRET; homogeneous TR-FRET as a1, 12-concentration dose–response of rosiglitazone; the EC50 is of the compound; delta ratio in % of the reference compound at 10 μM (RO4899100 for PPARα, edaglitazone for PPARγ); settings: both partners purified
[10] = molecular target: T3, GST–PPARα fusion protein (purified ligand binding domain of PPARα); assay: FRET or BRET; homogeneous TR-FRET as a1, 12-concentration dose–response of fenofibric acid; the EC50 is of the compound; delta ratio in % of the reference compound RO4899100 at 10 μM
[11] = molecular target: T3, GST–PPARα fusion protein (purified ligand binding domain of PPARα); assay: FRET or BRET; homogeneous TR-FRET as a1, 12-concentration dose–response of RO4899100; the EC50 is of the compound; delta ratio in % of the reference compound at 10 μM (RO4899100 for PPARα, edaglitazone for PPARγ)
[12] = molecular target: T3, GST–PPARα fusion protein (purified ligand binding domain of PPARα); assay: FRET or BRET; homogeneous TR-FRET as a1, 12-concentration dose–response of aleglitazar; the EC50 is of the compound; delta ratio in % of the reference compound at 10 μM (RO4899100 for PPARα, edaglitazone for PPARγ)
[13] = molecular target: T3, GST–PPARα fusion protein (purified ligand binding domain of PPARα); assay: FRET or BRET; homogeneous TR-FRET as a1, 12-concentration dose–response of edaglitazone; the EC50 is of the compound; delta ratio in % of the reference compound at 10 μM (RO4899100 for PPARα, edaglitazone for PPARγ)
[14] = molecular target: T3, GST–PPARα fusion protein (purified ligand binding domain of PPARα); assay: FRET or BRET; homogeneous TR-FRET as a1, 12-concentration dose–response of muraglitazar; the EC50 is of the compound; delta ratio in % of the reference compound at 10 μM (RO4899100 for PPARα, edaglitazone for PPARγ)
[15] = molecular target: T3, GST–PPARα fusion protein (purified ligand binding domain of PPARα); assay: FRET or BRET; homogeneous TR-FRET as a1, 12-concentration dose–response of pioglitazone; the EC50 is of the compound; delta ratio in % of the reference compound at 10 μM (RO4899100 for PPARα, edaglitazone for PPARγ)
[16] = molecular target: T3, GST–PPARα fusion protein (purified ligand binding domain of PPARα); assay: FRET or BRET; homogeneous TR-FRET as a1, 12-concentration dose–response of tesaglitazar; the EC50 is of the compound; delta ratio in % of the reference compound at 10 μM (RO4899100 for PPARα, edaglitazone for PPARγ)
[17] = molecular target: T3, GST–PPARα fusion protein (purified ligand binding domain of PPARα); assay: FRET or BRET; homogeneous TR-FRET as a1, 12-concentration dose–response of rosiglitazone; the EC50 is of the compound; delta ratio in % of the reference compound at 10 μM (RO4899100 for PPARα, edaglitazone for PPARγ)

Row | Molecule | EC50 of farglitazar for recruitment [2] [nM] | EC50 of RO4899100 for recruitment [3] [nM] | EC50 of aleglitazar for recruitment [4] [nM] | EC50 of edaglitazone for recruitment [5] [nM] | EC50 of muraglitazar for recruitment [6] [nM] | EC50 of pioglitazone for recruitment [7] [nM] | EC50 of tesaglitazar for recruitment [8] [nM] | EC50 of rosiglitazone for recruitment [9] [nM] | delta ratio with fenofibric acid [10] [%] | delta ratio with aleglitazar [12] [%] | delta ratio with muraglitazar [14] [%] | delta ratio with rosiglitazone [17] [%] | also measured
1 | Cc1nc(-c2ccc(C(F)(F)F)cc2)ccc1CN(C)C(=O)c1cccc(OC(C)(C)C(=O)O)c1 [RO4899100, 2-methyl-2-(3-{methyl-[2-methyl-6-(4-trifluoromethyl-phenyl)pyridin-3-ylmethyl]carbamoyl}phenoxy)propionic acid] |  |  |  |  |  |  |  |  |  |  |  |  | PPARδ / EC50 [nM] [1]: 19 900 nM
2 | {Biotin-Ahx}-GNTKNHPMLMNLLKDNPAQDF (thyroid hormone receptor-associated protein complex 220 kDa component (TRAP220), motif 2, residues 637-657; also called TRAP220_M2; TRAP220 M2; source: synthetic peptide (Jerini or Biosynthan, Berlin)) | 3.5 | 4410 | 3.2 | 9.5 | 6.2 | 431 | 31.6 | 41.3 |  |  |  |  | 
3 | {Biotin-Ahx}-TSGPQTPQAQQKSLLQQLLTE (source: synthetic peptide (Jerini or Biosynthan, Berlin)) [SRC1_M4 cofactor peptide (steroid receptor co-activator 1, motif 4)] | 3.3 | 1450 | 3.4 |  | 6.1 | 222 | 25.5 | 23.5 |  |  |  |  | 
4 | {Biotin-Ahx}-SGNLVPDAASKHKQLSELLRGGSGS (source: synthetic peptide (Jerini or Biosynthan, Berlin)) [CBP cofactor peptide (cAMP responsive element binding protein (CREB)-binding protein)] | 3 | 1990 | 3.3 | 7.2 | 4.3 | 79.1 | 13.9 | 10.4 |  |  |  |  | 
5 | {Biotin-Ahx}-CPSSHSSLTERHKILHRLLQEGSPS (source: synthetic peptide (Jerini or Biosynthan, Berlin)) [SRC1_M2 cofactor peptide (steroid receptor co-activator 1, motif 2)] | 3.8 | 2080 | 3.2 | 9.8 | 5.7 | 196 | 24.4 | 18.5 |  |  |  |  | 
6 | {Biotin-Ahx}-LDASKKKESKDHQLLRYLLDKDEKD (source: synthetic peptide (Jerini or Biosynthan, Berlin)) [SRC1_M3 cofactor peptide (steroid receptor co-activator 1, motif 3)] | 12.1 |  | 11.3 | 38.1 | 37.4 | 2120 | 196 | 241 | 47 | 53 | 23 | 21 | EC50 of fenofibric acid for recruitment [10]: 3450 nM; EC50 of RO4899100 for recruitment [11]: 4.9 nM; EC50 of aleglitazar for recruitment [12]: 2.4 nM; EC50 of muraglitazar for recruitment [14]: 8.4 nM; EC50 of tesaglitazar for recruitment [16]: 111 nM; delta ratio with tesaglitazar [16]: 52%; EC50 of rosiglitazone for recruitment [17]: 3070 nM

Further lines, with some results ahead:

Row | EC50 of farglitazar for recruitment [2] [nM] | EC50 of RO4899100 for recruitment [3] [nM] | EC50 of aleglitazar for recruitment [4] [nM] | EC50 of edaglitazone for recruitment [5] [nM] | EC50 of muraglitazar for recruitment [6] [nM] | EC50 of pioglitazone for recruitment [7] [nM] | EC50 of tesaglitazar for recruitment [8] [nM] | EC50 of rosiglitazone for recruitment [9] [nM] | delta ratio with fenofibric acid [10] [%] | delta ratio with aleglitazar [12] [%] | delta ratio with muraglitazar [14] [%] | delta ratio with rosiglitazone [17] [%] | Molecule | also measured
7 |  |  |  |  |  |  |  |  | -55 | -61 | -50 | -31 | {Biotin-Ahx}-ADPASNLGLEDIIRKALMGSF (nuclear receptor co-repressor (NCoR), ID2; also called NCoR2; NcoR2; source: synthetic peptide (Jerini or Biosynthan, Berlin)) [NCoR ID2 cofactor peptide (nuclear receptor co-repressor, interaction domain 2)] | EC50 of fenofibric acid for displacement [10]: 1900 nM; EC50 of farglitazar for displacement [2]: 13.6 nM; EC50 of RO4899100 for displacement [11]: 18.5 nM; EC50 of aleglitazar for displacement [12]: 1.7 nM; EC50 of edaglitazone for displacement [13]: 1950 nM; delta ratio with edaglitazone [13]: -44%; EC50 of muraglitazar for displacement [14]: 139 nM; EC50 of pioglitazone for displacement [15]: 3220 nM; delta ratio with pioglitazone [15]: -54%; EC50 of tesaglitazar for displacement [16]: 646 nM; delta ratio with tesaglitazar [16]: -54%; EC50 of rosiglitazone for displacement [17]: 3000 nM; EC50 of aleglitazar for displacement [4]: 15.3 nM; EC50 of edaglitazone for displacement [5]: 57.1 nM; EC50 of muraglitazar for displacement [6]: 63.4 nM; EC50 of pioglitazone for displacement [7]: 9420 nM; EC50 of tesaglitazar for displacement [8]: 537 nM; EC50 of rosiglitazone for displacement [9]: 497 nM
8 | 8.6 |  | 11 | 38.1 | 35.6 | 2260 | 226 | 240 | 39 | 94 | 74 | 20 | {Biotin-Ahx}-DSKYSQTSHKLVQLLTTTAEQQLRH (source: synthetic peptide (Jerini or Biosynthan, Berlin)) [SRC1_M1 cofactor peptide (steroid receptor co-activator 1, motif 1)] | EC50 of fenofibric acid for recruitment [10]: 4360 nM; EC50 of RO4899100 for recruitment [11]: 16.1 nM; EC50 of aleglitazar for recruitment [12]: 2.9 nM; EC50 of edaglitazone for recruitment [13]: 867 nM; delta ratio with edaglitazone [13]: 41%; EC50 of muraglitazar for recruitment [14]: 186 nM; EC50 of tesaglitazar for recruitment [16]: 427 nM; EC50 of rosiglitazone for recruitment [17]: 2630 nM
